From article PMC4303326

B1: (dT)21/(dA)21 duplex (dsDNA)
DNA 1: TTTTTTTTTTTTTTTTTTTTT
DNA 2: AAAAAAAAAAAAAAAAAAAAA
modifications: 5' thiol; 3' methylene blue on dT strand

What was measured:
Test in all cases: electrochemical DNA sensor
[1] = target: thrombin (bovine, UniProt P00735;P00735 318-366;367-625)
[2] = target: T1, gene 32 protein (g32p), full-length (bacteriophage T4, UniProt P03695 1-301)
T1 sequence: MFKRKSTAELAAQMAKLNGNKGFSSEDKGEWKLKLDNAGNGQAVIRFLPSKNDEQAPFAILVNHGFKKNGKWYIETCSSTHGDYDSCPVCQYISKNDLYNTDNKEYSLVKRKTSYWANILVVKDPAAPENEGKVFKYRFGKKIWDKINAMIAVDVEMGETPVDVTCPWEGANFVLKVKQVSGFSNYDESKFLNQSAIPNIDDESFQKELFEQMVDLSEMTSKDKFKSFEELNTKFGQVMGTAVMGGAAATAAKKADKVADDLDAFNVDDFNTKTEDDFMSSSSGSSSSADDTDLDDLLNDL

[3] = target: T1, gene 32 protein (g32p), full-length; remark: listed apart in the source

Binder | binding result [1] | Kd [2] [nM] | binding result [3]
TTTTTTTTTTTTTTTTTTTTT (ssDNA, 5' thiol; 3' methylene blue) [(dT)21 probe] | no binding | ~100 | 
B1 |  |  | no binding
